In PMC10140330:

Molecular target: SmT1-R, resistin-trimerized SARS-CoV-2 reference strain spike ectodomain (SARS-CoV-2 | human) (UniProt P0DTC2)
Experiment: SPR; Biacore T200, 25°C, PBS with 0.05% Tween 20 and 3.4 mM EDTA; spike trimer captured through its resistin domain on an immobilised anti-resistin VHH-Fc; monomeric ACE2 flowed over, single cycle kinetics, three concentrations, 5-fold dilutions from 200 nM; 1:1 binding model

Substance: recombinant human ACE2, purified monomeric (from UniProt Q9BYF1 18-805) (receptor)
- Kd: 28 nM
